Laboratory results reported in FireProtDB (doi:10.1021/bi011146t).
Several values for one entry are separate records, joined by “and”; a condition that tells them apart may be missing. Identical values can stand only once.

Conditions: Archaeoglobus fulgidus (strain ATCC 49558 / DSM 4304 / JCM 9628 / NBRC 100126 / VC-16), pH 7.5, CD, sodium phosphate 20 mM, reversible: no, whole UniProt chain shown

B1: wild type, O28558 (protein)
chain: MLDMPIDPVYYQLAEYFDSLPKFDQFSSAREYREAINRIYEERNRQLSQHERVERVEDRTIKGRNGDIRVRVYQQKPDSPVLVYYHGGGFVICSIESHDALCRRIARLSNSTVVSVDYRLAPEHKFPAAVYDCYDATKWVAENAEELRIDPSKIFVGGDSAGGNLAAAVSIMARDSGEDFIKHQILIYPVVNFVAPTPSLLEFGEGLWILDQKIMSWFSEQYFSREEDKFNPLASVIFADLENLPPALIITAEYDPLRDEGEVFGQMLRRAGVEASIVRYRGVLHGFINYYPVLKAARDAINQIAALLVFD
denaturant m value (20 °C, Urea): 1.65 kcal/mol/M | denaturant midpoint (higher = more stable) (20 °C, Urea): 7.1 M | unfolding free energy (20 °C, Urea): 11.7 kcal/mol | unfolding enthalpy (van 't Hoff) (Thermal): 103 kcal/mol and 95.6 kcal/mol and 90.8 kcal/mol
